These results are taken from patent US7067117 (CAMBRIDGE UNIVERSITY TECHNICAL SERVICES, dated 2006).

Where “and” joins values, the source holds several entries; their conditions need not be identical. Identical values can stand only once. Like-named read-outs stand apart in the source and are kept apart here. Square brackets hold non-standard residues; d marks the D form. Ends that are not written are not given here.

Assay [1] addresses T1, Duffy Antigen Receptor for Chemokines (DARC) (human) (UniProt Q16570).
T1 sequence (looked up): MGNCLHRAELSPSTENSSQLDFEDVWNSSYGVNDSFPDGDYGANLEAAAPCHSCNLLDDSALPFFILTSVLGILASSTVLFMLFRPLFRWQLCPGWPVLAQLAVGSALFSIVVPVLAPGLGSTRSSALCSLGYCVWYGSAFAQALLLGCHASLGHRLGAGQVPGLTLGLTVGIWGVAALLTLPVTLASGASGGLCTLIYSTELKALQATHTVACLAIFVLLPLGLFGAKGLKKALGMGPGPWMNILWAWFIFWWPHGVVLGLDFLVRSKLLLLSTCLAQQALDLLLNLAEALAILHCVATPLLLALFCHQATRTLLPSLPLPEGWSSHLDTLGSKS
Put plainly: estimated ka for binding to red blood cells divided by inhibitory ED50 (THP-1 migration).

In assay [2] the target is chemokine receptors on THP-1 cells. Put plainly: cell-based or functional assay.
Assay [3] addresses T1, Duffy Antigen Receptor for Chemokines (DARC) (human). Nature of the assay: DARC binding; given as 'affinity constant'.
Assay [4] concerns the target chemokine receptors on THP-1 cells. Nature of the assay: binding to chemokine receptors on THP-1 cells; given as 'association constant'.
Assay [5] addresses T2, Duffy Antigen Receptor for Chemokines (DARC) (human, UniProt Q16570 1-336).
T2 chain: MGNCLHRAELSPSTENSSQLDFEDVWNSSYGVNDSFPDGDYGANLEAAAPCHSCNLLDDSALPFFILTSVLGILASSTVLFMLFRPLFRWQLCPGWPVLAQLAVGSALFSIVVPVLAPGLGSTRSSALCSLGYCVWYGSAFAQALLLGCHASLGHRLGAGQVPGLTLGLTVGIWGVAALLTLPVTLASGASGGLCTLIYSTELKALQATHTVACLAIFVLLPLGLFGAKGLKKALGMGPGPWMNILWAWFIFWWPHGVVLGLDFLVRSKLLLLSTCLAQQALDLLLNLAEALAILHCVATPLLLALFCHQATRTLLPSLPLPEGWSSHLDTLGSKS
Nature of the assay: DARC binding.

For assay [6], the target named is chemokine receptors on THP-1 cells. Put plainly: cell-based or functional assay. The source holds these as a separate data set.
In assay [7] the target is T3, Duffy Antigen Receptor for Chemokines (DARC) (human, UniProt Q16570 1-336).
T3 construct: whole, on cells
T3 sequence (looked up): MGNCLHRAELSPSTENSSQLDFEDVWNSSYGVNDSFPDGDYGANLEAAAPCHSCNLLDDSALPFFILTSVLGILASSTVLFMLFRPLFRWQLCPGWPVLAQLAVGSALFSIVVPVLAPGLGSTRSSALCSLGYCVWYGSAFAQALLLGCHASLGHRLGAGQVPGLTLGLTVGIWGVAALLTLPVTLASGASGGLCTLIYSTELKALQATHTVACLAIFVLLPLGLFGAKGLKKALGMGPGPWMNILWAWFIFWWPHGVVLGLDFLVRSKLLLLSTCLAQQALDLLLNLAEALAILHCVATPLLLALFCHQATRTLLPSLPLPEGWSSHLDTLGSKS
Put plainly: competition binding analysis using red blood cells. The procedure:
(§1) To overcome this difficulty, the ka for association of DARC with peptide 3(1–12)[MCP-1] (SEQ ID NO:1) and peptide 2(1–15)[MCP-1] […] After binding has reached equilibrium (30 minutes at 37° C.), the cells are separated from the unbound label by centrifugation for 5 minutes through a sucrose gradient. Counts associated with the cells are then determined by gamma-counting scintigraphy. […] Furthermore, Scatchard analysis confirms the presence of a single high affinity binding site with 500–1000 copies per cell, consistent with the known properties of DARC.

Assay [8] has as its target chemokine receptors on THP-1 cells. Put plainly: estimated ka for binding to THP-1 cells (competition binding analysis), printed under 'AVERAGE ED50 (µM)'.
For assay [9], the target named is T3, Duffy Antigen Receptor for Chemokines …. Nature of the assay: Duffy binding. The procedure: as §1
Assay [10] has the same target. Nature of the assay: ka for binding to red blood cells divided by ka for binding to THP-1 cells.
For assay [11] the target is unchanged. Put plainly: DARC binding. The procedure:
as §1

In another assay the target is CCR5, P51681. Nature of the assay: method not described; given as 'affinity constant'.
The target of the next assay is T4, CXCR4, P61073.
T4 chain: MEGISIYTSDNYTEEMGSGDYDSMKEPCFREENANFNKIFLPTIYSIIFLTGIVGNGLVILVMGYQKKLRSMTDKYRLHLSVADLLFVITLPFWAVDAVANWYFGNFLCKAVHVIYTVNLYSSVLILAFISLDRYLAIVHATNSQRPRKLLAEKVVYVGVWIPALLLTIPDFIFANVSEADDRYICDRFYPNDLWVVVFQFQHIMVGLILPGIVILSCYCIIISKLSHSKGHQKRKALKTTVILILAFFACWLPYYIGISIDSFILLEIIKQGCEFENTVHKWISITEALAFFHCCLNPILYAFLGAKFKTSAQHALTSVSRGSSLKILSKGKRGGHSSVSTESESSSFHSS
Put plainly: method not described; given as 'affinity constant'.

For assay [12], the target named is T5, Duffy Antigen Receptor for Chemokines (DARC) (human), Q16570.
T5 chain: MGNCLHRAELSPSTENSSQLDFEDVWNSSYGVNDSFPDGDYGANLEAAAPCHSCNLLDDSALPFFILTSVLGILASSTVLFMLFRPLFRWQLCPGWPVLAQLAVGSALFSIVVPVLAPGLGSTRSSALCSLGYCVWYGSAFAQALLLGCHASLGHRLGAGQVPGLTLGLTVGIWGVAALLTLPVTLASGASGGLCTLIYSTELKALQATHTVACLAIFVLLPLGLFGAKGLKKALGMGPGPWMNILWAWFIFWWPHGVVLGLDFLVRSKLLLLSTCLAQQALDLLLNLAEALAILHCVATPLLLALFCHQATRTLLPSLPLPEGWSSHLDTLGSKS
Nature of the assay: DARC binding. The following applies: modification not given.

For assay [13], the target named is T5, Duffy Antigen Receptor for Chemokines …. Nature of the assay: Duffy binding, LRD against LFL peptide 2(1-15)[MCP-1].
The target is the same in assay [14]. Nature of the assay: Duffy binding.
The target is the same in assay [15]. Put plainly: estimated ka for binding to red blood cells divided by average inhibitory ED50 (THP-1 migration). The following applies: remark: other sources report otherwise.
For assay [16], the target named is T3, Duffy Antigen Receptor for Chemokines …. Put plainly: DARC binding on red blood cells. The procedure:
as §1

In assay [17] the target is chemokine receptors on the surface of Jurkat cells. Put plainly: biotinylated peptide binding to Jurkat cells.
Assay [18] has as its target chemokine receptors on THP-1 cells. Nature of the assay: biotinylated derivative mixed with THP-1 cells.
Assay [19] addresses T1, Duffy Antigen Receptor for Chemokines (DARC) (human). Put plainly: estimated ka for binding to red blood cells divided by average inhibitory ED50 (THP-1 migration).
For assay [20] the target is unchanged. Nature of the assay: ka for red blood cells divided by ED50.
Assay [21] deals with chemokine receptors on THP-1 cells. Nature of the assay: cell-based or functional assay. The source holds these as a separate data set.

Chain of CCR5, P51681 (P51681 whole entry): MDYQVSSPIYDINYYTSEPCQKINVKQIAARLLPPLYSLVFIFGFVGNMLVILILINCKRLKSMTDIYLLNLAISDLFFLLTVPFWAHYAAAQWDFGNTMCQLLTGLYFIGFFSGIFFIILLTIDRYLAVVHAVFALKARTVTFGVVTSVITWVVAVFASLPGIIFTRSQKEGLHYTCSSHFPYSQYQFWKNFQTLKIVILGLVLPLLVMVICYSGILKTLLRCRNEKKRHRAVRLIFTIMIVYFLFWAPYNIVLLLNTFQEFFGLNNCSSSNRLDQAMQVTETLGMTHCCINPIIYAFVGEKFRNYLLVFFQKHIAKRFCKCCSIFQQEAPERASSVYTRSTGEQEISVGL

Usually Kd stands for the equilibrium constant for the complex coming apart. For Peptide 3(7-9)[MCP-1], i.e, KQK, the Duffy selectivity in assay [1] was 22.3. For the same molecule, in [2], the % inhibition of migration induced by MCP-1 at 100 µM tripeptide was determined as 95%, the % inhibition of migration induced by SDF1α at 100 µM tripeptide stood at 29%, the ED50 as inhibitor of MCP-1 induced THP-1 migration lay in the range of 2 to 5 µM and the ED50 for inhibition of THP-1 migration induced by the one chemokine it is specific for (MCP-1) was 6 µM. Moreover, in assay [2], the ED50 for inhibition of THP-1 migration versus MCP1 was found to be 7 µM. Moreover, in assay [3], the Kd came to 15 µM. Further, the Kd in assay [4] is 0.5 µM and 1 µM.

B1: peptide 2(1-15)[MCP-1] (peptide)
peptide: SYRRITSSKCPKEAV
notes: synthetic linear L-form peptide; also called Pep2[MCP1]; Pep2(1-15)[MCP1]
On to B1, for which the dissociation constant (Kd) was 0.35 µM in assay [5], below 0.5 µM in [7], 2 µM in [8] and 100 µM in assay [9]. For the same molecule, the ED50 for inhibition of chemokine-induced THP-1 migration in [6] is above 100 µM. Further, the inhibition of chemokine-induced THP-1 migration at 100 µM in assay [6] came to 19%. Moreover, the promotion of THP-1 migration (agonist activity) in assay [6] came out at 10 µM. The molecule further had a Duffy selectivity in [10] of 0.18 ratio.

In turn, SYRRITSSKSPKEAV [Ser10 variant of peptide 2(1-15)[MCP-1]] displayed a dissociation constant Kd in assay [11] of 20 to 100 µM.

[dV][dA][dE][dK][dP][dC][dK][dS][dS][dT][dI][dR][dR][dY][dS] [LRD peptide 2(1-15)[MCP-1]]: the Kd with CCR5, P51681 was below 0.1 µM; in the assay with CXCR4, P61073, below 0.1 µM; in assay [12], 18 µM; in assay [14], 25 µM. Further, the fold decrease in Duffy binding against the LFL peptide in assay [13] is 100 fold.

For the molecule EICADPKQKWVQ [peptide 3(1-12)[MCP-1]], in assay [6], the % inhibition of THP-1 migration at 100 µM versus IL8 was determined as 103%, the % inhibition of THP-1 migration at 100 µM versus MCP-1 was determined as 112%, the % inhibition of THP-1 migration at 100 µM versus MIP1α worked out at 99% and the % inhibition of THP-1 migration at 100 µM versus SDF-1α was determined as 107%. In assay [6], this molecule came in with an ED50 for inhibition of THP-1 migration versus IL8 of 14 µM, an ED50 for inhibition of THP-1 migration versus MCP-1 of 8 µM, an ED50 for inhibition of THP-1 migration versus MIP1α of 8 µM and an ED50 for inhibition of THP-1 migration versus SDF-1α of 10 µM. In assay [6], this molecule displayed an average ED50 for inhibition of THP-1 migration induced by each of the chemokines of 10 µM; an inhibition of MCP-1 induced THP-1 migration at 100 µM, peptide incubated with the cells above 99%; an inhibition of MCP-1 induced THP-1 migration at 100 µM, peptide incubated with the chemokine of 17%. Further, the Duffy selectivity in [15] was 1.

SYRRITSSK [Peptide 2(1-9)[MCP-1]] yielded a Kd in assay [16] of around 50 µM.

In the case of SYRRITSSKCPKEAV (also: biotinylated, position not given here) [biotinylated peptide 2(1-15)[MCP-1]], the Kd was 3 µM in [17] and 1.9 µM in assay [18].

For the molecule WVQ [Peptide 3(10-12)[MCP-1], i.e., WVQ], the Duffy selectivity in assay [19] was 24.8. This molecule came in with a Duffy selectivity in [20] of 10. In assay [3], this molecule registered an equilibrium dissociation constant (Kd) of 2 µM. Also, in assay [21], the ED50 for inhibition of THP-1 migration versus IL8 is below 1 µM, the ED50 for inhibition of THP-1 migration versus MCP1 worked out at 8 µM, the ED50 for inhibition of THP-1 migration versus MIP1α was below 1 µM and the ED50 for inhibition of THP-1 migration versus SDF1α is below 1 µM. In [21], this molecule gave an ED50 for inhibition of migration induced by IL-8 of 1 µM, an ED50 for inhibition of migration induced by MCP-1 of 8 µM, an ED50 for inhibition of migration induced by MIP1α of 7.5 µM and an ED50 for inhibition of migration induced by RANTES of 1.5 µM. In [21], this molecule yielded an ED50 for inhibition of migration induced by SDF1α of 2 µM and an average ED50 for inhibition of THP-1 migration induced by each of the chemokines of 2 µM.
